Earlier results in patent US20170080049A1, “MEDICINE AGAINST GROWTH FAILURE INDUCED BY ADMINISTRATION OF STEROID” (DAIICHI SANKYO COMPANY, LIMITED, priority 2014, published 2017).
Positions of bridges follow the written chain, without caps; N, C: chain ends. No end group written: not given here.

Experiments:
[1] = molecular target: T1, NPR-B (Homo sapiens, UniProt P20594); settings: Furuya et al. 1992; US 2010-305031; cited from earlier work
T1 sequence (P20594 23-1047): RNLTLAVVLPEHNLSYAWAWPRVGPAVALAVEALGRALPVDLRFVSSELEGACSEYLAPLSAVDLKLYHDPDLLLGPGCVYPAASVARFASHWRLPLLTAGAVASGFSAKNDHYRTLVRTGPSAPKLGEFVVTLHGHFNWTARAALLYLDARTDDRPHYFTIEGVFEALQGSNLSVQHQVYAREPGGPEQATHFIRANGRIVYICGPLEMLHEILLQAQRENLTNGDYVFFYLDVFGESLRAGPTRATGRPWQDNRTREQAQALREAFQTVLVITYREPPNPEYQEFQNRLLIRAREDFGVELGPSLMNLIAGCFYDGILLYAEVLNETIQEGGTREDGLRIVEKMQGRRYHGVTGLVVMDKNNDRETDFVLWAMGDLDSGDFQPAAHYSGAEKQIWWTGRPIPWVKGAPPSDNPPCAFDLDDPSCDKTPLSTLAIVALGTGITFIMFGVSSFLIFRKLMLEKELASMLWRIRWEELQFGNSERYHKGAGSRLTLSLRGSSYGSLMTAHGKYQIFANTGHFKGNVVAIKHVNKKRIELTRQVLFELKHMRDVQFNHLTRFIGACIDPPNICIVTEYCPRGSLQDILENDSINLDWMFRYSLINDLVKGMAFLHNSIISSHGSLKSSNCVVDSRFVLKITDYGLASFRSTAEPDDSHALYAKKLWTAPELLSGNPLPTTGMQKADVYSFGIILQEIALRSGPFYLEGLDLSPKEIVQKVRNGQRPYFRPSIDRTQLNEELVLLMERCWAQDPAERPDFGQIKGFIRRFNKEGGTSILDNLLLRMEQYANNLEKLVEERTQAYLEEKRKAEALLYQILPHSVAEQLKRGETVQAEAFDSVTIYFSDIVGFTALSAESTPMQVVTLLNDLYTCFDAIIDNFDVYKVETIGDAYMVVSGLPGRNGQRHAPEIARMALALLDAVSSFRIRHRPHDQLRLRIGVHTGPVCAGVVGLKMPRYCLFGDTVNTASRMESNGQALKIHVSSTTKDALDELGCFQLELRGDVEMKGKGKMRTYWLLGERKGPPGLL

[2] = system: normal mice; settings: continuous intravenous administration, normal mice (Non Patent Literature 9, 10); cited from earlier work

| Substance | NPR-B agonist activity compared with hCNP-22 (in words) [1] | elongation of bone (in words) [2] |
| --- | --- | --- |
| CNP6-22: peptide consisting of only the ring structure (amino acid Nos. 6 to 22 of SEQ ID NO: 1) (CFGLKLDRIGSMSGLGC; disulfide 1-17 (inferred)) | almost the same NPR-B agonist activity as that of hCNP-22 |  |
| CNP-22: human-derived CNP-22 consisting of 22 amino acids, GLSKGCFGLK LDRIGSMSGL GC (GLSKGCFGLKLDRIGSMSGLGC) |  | promoted |
